Article PMC2528843

How the values were obtained:
[1] = flow cytometry, mean YFP fluorescence, stable HepG2; settings: glycan lost
[2] = confocal imaging, transiently transfected HepG2; settings: glycan lost; control: untreated
[3] = confocal imaging, cell surface targeting, stable HepG2; settings: glycan lost; control: wild-type hSVCT1-YFP
[4] = [14C]-ascorbic acid uptake, stable HepG2 cells; settings: glycan lost; control: wild-type hSVCT1-YFP
[5] = confocal imaging, apical targeting, polarized MDCK cells; settings: glycan lost; control: wild-type hSVCT1-YFP

hSVCT2: N196Q
expression_or_secretion ([1]; control: wild-type hSVCT2-YFP): decreases

hSVCT1: tunicamycin
expression_or_secretion ([1]; control: untreated): decreases
localisation_or_trafficking [2]: decreases

hSVCT1: N144Q
localisation_or_trafficking [3]: no change
expression_or_secretion ([1]; control: wild-type hSVCT1-YFP): no change
other: transport activity [4]: decreases
localisation_or_trafficking [5]: no change

hSVCT2: N188/N196Q
expression_or_secretion ([1]; control: wild-type hSVCT2-YFP): decreases

hSVCT1: N138Q/N144Q
localisation_or_trafficking [5]: decreases

hSVCT2: tunicamycin
expression_or_secretion ([1]; control: untreated): decreases
localisation_or_trafficking [2]: no change

hSVCT1: N138/N144Q
expression_or_secretion ([1]; control: wild-type hSVCT1-YFP): decreases

hSVCT2: N188Q
expression_or_secretion ([1]; control: wild-type hSVCT2-YFP): decreases

hSVCT1: N138Q
localisation_or_trafficking [3]: decreases
expression_or_secretion ([1]; control: wild-type hSVCT1-YFP): decreases
localisation_or_trafficking [5]: decreases
